Measured values as given in paper PMC4701049 (Biochemistry, 2015).

B1: Pseudomonas putida WCS358 PupR cytoplasmic anti-sigma domain (PupR-ASD), wild type (domain or fragment)
chain: GAMGMNGQGATSIPGEVAEQAMHWHLELQEPAVSAATLAACMSWRQAHPLHEHAWQRTQVFAQRLREMRSPGQRPLAHAALRPQQS
B2: PupR-ASD Q42D (domain or fragment, Pseudomonas putida WCS358)
chain: GAMGMNGQGATSIPGEVAEQAMHWHLELQEPAVSAATLAACMSWRDAHPLHEHAWQRTQVFAQRLREMRSPGQRPLAHAALRPQQS
B3: PupR-ASD L61D (domain or fragment, Pseudomonas putida WCS358)
chain: GAMGMNGQGATSIPGEVAEQAMHWHLELQEPAVSAATLAACMSWRQAHPLHEHAWQRTQVFAQRDREMRSPGQRPLAHAALRPQQS
B4: PupR-ASD L22D (domain or fragment, Pseudomonas putida WCS358)
chain: GAMGMNGQGATSIPGEVAEQAMHWHDELQEPAVSAATLAACMSWRQAHPLHEHAWQRTQVFAQRLREMRSPGQRPLAHAALRPQQS
B5: PupR-ASD M18D (domain or fragment, Pseudomonas putida WCS358)
chain: GAMGMNGQGATSIPGEVAEQADHWHLELQEPAVSAATLAACMSWRQAHPLHEHAWQRTQVFAQRLREMRSPGQRPLAHAALRPQQS
B6: PupR-ASD M38D (domain or fragment, Pseudomonas putida WCS358)
chain: GAMGMNGQGATSIPGEVAEQAMHWHLELQEPAVSAATLAACDSWRQAHPLHEHAWQRTQVFAQRLREMRSPGQRPLAHAALRPQQS
B7: PupR-ASD F57D (domain or fragment, Pseudomonas putida WCS358)
chain: GAMGMNGQGATSIPGEVAEQAMHWHLELQEPAVSAATLAACMSWRQAHPLHEHAWQRTQVDAQRLREMRSPGQRPLAHAALRPQQS
B8: PupR-ASD R53D (domain or fragment, Pseudomonas putida WCS358)
chain: GAMGMNGQGATSIPGEVAEQAMHWHLELQEPAVSAATLAACMSWRQAHPLHEHAWQDTQVFAQRLREMRSPGQRPLAHAALRPQQS
B9: PupR-ASD A35D (domain or fragment, Pseudomonas putida WCS358)
chain: GAMGMNGQGATSIPGEVAEQAMHWHLELQEPAVSAATLDACMSWRQAHPLHEHAWQRTQVFAQRLREMRSPGQRPLAHAALRPQQS

Molecular target: the molecule itself
Experiment: SEC

For B1, which “stoichiometry N” value is on record?
Its value is 2.

Molecular target: the molecule itself
Experiment: AUC

Which Kd does the source give for B1 here?
The Kd was 10.2 µM.

With B2 as the protein, how does the Kd read?
The Kd was 18.2 µM.

Which Kd does the source give for B3 here?
Its Kd is greater than 500 µM.

For B4, which Kd is on record?
Its Kd is greater than 200 µM.

B5 was tested. Which Kd did it give?
Its Kd is 226 µM.

With B6 as the protein, how does the Kd read?
Its Kd is 11.6 µM.

Which Kd does the source give for B7 here?
Its Kd is greater than 200 µM.

B8 was tested. Which Kd did it give?
Its Kd is 562 µM.

With B9 as the protein, how does the Kd read?
The Kd was 13.5 µM.
